The text below walks through data of patent US20080015165A1, “NOVEL POLYPEPTIDE” (KYOWA HAKKO KOGYO CO., LTD., priority 1998, published 2008).

Series [1] is described as follows: Enzyme activity for a poly-N-acetyllactosamine sugar chain, Namalwa cell extract, HPLC. The series is classed as biochemical. The text has this:
Using a poly-N-acetyllactosamine sugar chain, it was examined that to which GlcNAc in the sugar chains, human Fuc-TIX and 5 types of human α1,3-fucosyltransferase (Fuc-TIII, Fuc-TIV, Fuc-TV, Fuc-TVI, and Fuc-TVII) that had been cloned so far transferred fucose.
Control plasmid (pAMo) and the human Fuc-TIX expression plasmid pAMo-FT9 were introduced into Namalwa cells according to the method shown in Example 1 (3), thereby obtaining stable transformants.
Namalwa cells expressing each of the other 5 types of human α1,3-fucosyltransferases (Fuc-TIII, Fuc-TIV, Fuc-TV, Fuc-TVI, and Fuc-TVII) were obtained according to the previous report (Glycoconjugate J., 13, 802-812, Biochem. Biophys. Res. Commun., 237, 131-137, 1997).
The resultant transformants (about 1×10^7) were collected in microtubes (1.5 ml, manufactured by Eppendolf), followed by centrifugation at 550×g for 7 minutes to collect the cells.
The collected cells were washed with 0.9 ml of PBS. The washed cells were suspended in 100 μl of a solution which consisted of 20 mM HEPES (pH 7.2) and 1% TrironX-100, then allowed to stand at 4° C. for 10 minutes. Subsequently the cells were disrupted using a ultrasonicator (Bioruptor; manufactured by COSMO BIO CO., LTD.)
After disruption of the cells, each supernatant was obtained by centrifugation at 550×g for 7 minutes and used as an enzyme sample. A poly-N-acetyllactosamine sugar chain (Galβ1-4GlcNAcβ1-3Galβ1-4GlcNAcβ1-3Galβ1-4GlcNAc) consisting of 6 sugars was fluorescently labeled with 2-aminobenzamide to make a sugar chain (Galβ1-4GlcNAcβ1-3Galβ1-4GlcNAcβ1-3Galβ1-4GlcNAc-2AB: abbreviated as S in FIGS. 13 and 15, and table 3), which was used as a substrate
Florescent labeling was performed using a Signal™ 2-AB glycan labeling kit (manufactured by Oxford GlycoScience). A poly-N-acetyllactosamine sugar chain (Galβ1-4GlcNAcβ1-3Galβ1-4GlcNAcβ1-3Galβ1-4GlcNAc) was prepared according to WO98/03524.
(§1) Samples were allowed to react in 20 μl of an assay solution [50 mM cacodylate (pH 6.8), 5 mM ATP, 10 mM L-fucose, 75 μM […] (manufactured by SIGMA), 25 mM MnCl2, 15 μM fluorescently labeled sugar chain substrate, 6 μl of the cell lysate above] at 37° C. for 2 hours, followed by treatment at 100° C. for 3 minutes to stop the reaction. Next 200 μl of water was added to the samples, and the supernatant was obtained by centrifugation at 10,000×g for 5 minutes. Using an aliquot of the supernatant (10 μl), products were analyzed by HPLC under the following conditions.
(§2) HPLC: • Column—TSK-gel ODS-80TsQA column (4.6×250 mm; TOSOH CORPORATION) • Eluate—0.02 M ammonium acetate (pH 4.0) containing 7% methanol • Elution temperature—50° C. • Flow rate—1.0 ml/min. • Detection—Fluorescence spectrum photometer FB-920 (manufactured by JASCO Corporation) (excitation wavelength: 330 nm, radiation wavelength: 420 nm)

Series [2] is described as follows: Enzyme activity for monofucosylpoly-N-acetyllactosamine sugar chain P1, Namalwa cell extract, HPLC. The series is classed as biochemical. Conditions: relative activity with the activity for P1 assumed to be 1. As for the experimental part: as §1, §2
The enzymatic activities of Fuc-TIV, Fuc-TVI and Fuc-TIX were measured using the product P1 or P2 as a substrate in addition to the above substrate (S).

The next series has as its system Namalwa KJM-1 cells. Description: Indirect fluorescent antibody staining (FACS) of transformed Namalwa KJM-1 cells. The class given is cell-based, human. As to conditions: antibodies CSLEX-1, KM93; FIG. 2 (also Namalwa cells, FIG. 1). The text has this: Similarly, Namalwa KJM-1 cells, into which a control plasmid (pAMo), a mouse Fuc-TIX expression plasmid (pAMo-mFT9), a human Fuc-TIV expression plasmid (pAMo-FT4), or a human Fuc-TVII expression plasmid (pAMo-FT7) had been introduced, were obtained. The cells were subjected to indirect fluorescent antibody staining using the anti-Lewis x sugar chain antibody (KM380) and an anti-sialyl Lewis x sugar chain antibodies (CSLEX-1 or KM93) (see FIG. 2).

The test system of a further series is COS-1 cells. Briefly: Indirect fluorescent antibody staining (FACS) of transformed COS-1 cells. As to conditions: antibody 7LE; FIG. 3. The class given is cell-based, African green monkey. As for the experimental part:
Further, COS-1 cells, into which a control plasmid (pCDM8), a mouse Fuc-TIX expression plasmid (pCDM8-mFT9), or a human Fuc-TIII expression plasmid (pCDM8-Le) had been introduced, were prepared. The cells were subjected to indirect fluorescent antibody staining using the anti-Lewis a sugar chain antibody (7LE, manufactured by […] CORPORATION) (see FIG. 3).
Each α1,3-fucosyltransferase expression plasmid (15 μg) was introduced into 1×10^7 COS-1 cells.
This introduction was performed by electroporation method using a gene pulser (manufactured by Bio-Rad) according to the Bio-Rad's instructional manual attached thereto. At this time, 1 μg of a luciferase expression vector, which was constructed by inserting β-actin promoter into a Hind III site of a vector pSVOA/L [Experimental Medicine, 7, 96, (1989)] was co-introduced as an index of gene transfer efficiency.

A further series concerns Namalwa cells. Briefly: Indirect fluorescent antibody staining of Namalwa cells expressing human Fuc-TIV or Fuc-TIX (VIM-2 and Le^x sugar chains). The series is classed as cell-based. As for the experimental part:
Using an anti-VIM-2 sugar chain antibody (anti-CDw65 antibody, manufactured by Serotec) and anti-Le^x sugar chain antibodies [73-30 (manufactured by […] CORPORATION) and anti-CD15 antibody (C3D-1, manufactured by Dako)], indirect fluorescent antibody staining was performed for Namalwa cells expressing human Fuc-TIV or human Fuc-TIX, and for Namalwa cells transfected with the control vector pAMo, which were constructed in Example 9. The VIM-2 sugar chain is a sugar chain having the structure consisting of Galβ1-4GlcNAcβ1-3Galβ1-4(Fucα1-3)GlcNAc on non-reduced terminal of a sugar chain.
Indirect fluorescent antibody staining was performed according to the method described in Example 1 (3). Anti-VIM-2 sugar chain antibodies, 73-30 and C3D-1 were used after dilution at 1:50, 1:100, and 1:50.

Setting [3] is: relative activity with the activity for P1 assumed to be 1.
[4] abbreviates: substrate S, relative value, total of products P1, P2 and P3 by each enzyme = 100%.

B1: Fuc-TIX: human Fuc-TIX, 359 amino acids (SEQ ID NO:2), α1,3-fucosyltransferase expressed from pAMo-FT9 in Namalwa cells (protein)
chain: MTSTSKGILRPFLIVCIILGCFMACLLIYIKPTNSWIFSPMESASSVLKMKNFFSTKTDYFNETTILVWVWPFGQTFDLTSCQAMFNIQGCHLTTDRSLYNKSHAVLIHHRDISWDLTNLPQQARPPFQKWIWMNLESPTHTPQKSGIEHLFNLTLTYRRDSDIQVPYGFLTVSTNPFVFEVPSKEKLVCWVVSNWNPEHARVKYYNELSKSIEIHTYGQAFGEYVNDKNLIPTISACKFYLSFENSIHKDYITEKLYNAFLAGSVPVVLGPSRENYENYIPADSFIHVEDYNSPSELAKYLKEVDKNNKLYLSYFNWRKDFTVNLPRFWESHACLACDHVKRHQEYKSVGNLEKWFWN
modifications: human
Consider B1, for which, in series [1] (setting [3]), the “Enzymatic activity, substrate S, product P1” value is 7.2; the “Enzymatic activity, substrate S, product P2” value amounted to 1.6; the “Enzymatic activity, substrate S, product P3” value was found to be 0.7. Besides, in series [1] (setting [4]), the “Production (%) P1” value is 82.7%, the “Production (%) P2” value was found to be 13.4% and the “Production (%) P3” value was determined as 3.9%. In addition, the “Enzymatic activity, substrate P1, product P3” value in series [2] is 1.0. Moreover, the “synthesis of the sialyl Lewis x sugar chain in transformed cells” value in the series with Namalwa KJM-1 cells is on record as “cannot synthesize”. In addition, the “synthesis of the Lewis a sugar chain in transformed cells” value with COS-1 cells is “cannot synthesize”. Further, the “reactivity against the anti-Le^x sugar chain antibodies [73-30 and anti-CD15 antibody]” value with Namalwa cells (Namalwa cells expressing Fuc-TIX compared with those expressing Fuc-TIV) is reported as “greater”. In the series on Namalwa cells (compared to Namalwa cells transfected with pAMo), the “reactivity against the anti-VIM-2 sugar chain antibody” value was “slight increase”.
